Laboratory results from patent publication US20240287172A1 (SCIRHOM, published 2024).
Changes are numbered by the printed parent chain.

B1: antibody 3 (antibody, V domains shown)
VH: QVTLKESGPGILQPSQTLSLTCSFSGFSLTTFAMGIGWVRQPSGKGLEWLAHIWWDGEKYNNPVLKSRLTISKDTSKNQVFLRIANVDTPDTATYYCARISSIYYIIDNWGQGTSVTVSS
VL: DIVLTQSPATLSVTPGHSVSLSCRASQSISNNLHWYQKKSHESPRLLIKYVSQSISGIPSRFSGSGSGTDFTLSINSVETEDFGMYFCQQSYNWPLTFGAGTKLELK
notes: mouse IgG, kappa light chain; also called clone #3; purified antibody 3
B2: antibody 48 (antibody, V domains shown)
VH: QVQLQQSGTELVRPGTSVKVSCKASGYAFTNYLIEWVKQRPGQGLEWIGVINPGSGFTKYNEKFKGKATLTADKSSSTVYMHLSSLTSEDSAVYFCARGLYRAMDYWGQGTSVTVSS
VL: DIQMTQSPASQSASLGESVTITCLASQTIATWLAWYQQKPGKSPQLLIYGATTLADGVPSRFSGGGSGTKFSFKISSLQAEDFVSYYCQQLYSTPYTFGGGTKLEIK
notes: mouse IgG, kappa light chain; also called clone #48; purified antibody 48

Experiments:
hiR2-FL-P575A-T7 = target: T1, hiR2-FL-P575A-T7 (human, UniProt Q6PJF5 1-856); assay: FACS on MEF-DKO cells expressing the variant, 3 µg/ml antibody
T1 sequence: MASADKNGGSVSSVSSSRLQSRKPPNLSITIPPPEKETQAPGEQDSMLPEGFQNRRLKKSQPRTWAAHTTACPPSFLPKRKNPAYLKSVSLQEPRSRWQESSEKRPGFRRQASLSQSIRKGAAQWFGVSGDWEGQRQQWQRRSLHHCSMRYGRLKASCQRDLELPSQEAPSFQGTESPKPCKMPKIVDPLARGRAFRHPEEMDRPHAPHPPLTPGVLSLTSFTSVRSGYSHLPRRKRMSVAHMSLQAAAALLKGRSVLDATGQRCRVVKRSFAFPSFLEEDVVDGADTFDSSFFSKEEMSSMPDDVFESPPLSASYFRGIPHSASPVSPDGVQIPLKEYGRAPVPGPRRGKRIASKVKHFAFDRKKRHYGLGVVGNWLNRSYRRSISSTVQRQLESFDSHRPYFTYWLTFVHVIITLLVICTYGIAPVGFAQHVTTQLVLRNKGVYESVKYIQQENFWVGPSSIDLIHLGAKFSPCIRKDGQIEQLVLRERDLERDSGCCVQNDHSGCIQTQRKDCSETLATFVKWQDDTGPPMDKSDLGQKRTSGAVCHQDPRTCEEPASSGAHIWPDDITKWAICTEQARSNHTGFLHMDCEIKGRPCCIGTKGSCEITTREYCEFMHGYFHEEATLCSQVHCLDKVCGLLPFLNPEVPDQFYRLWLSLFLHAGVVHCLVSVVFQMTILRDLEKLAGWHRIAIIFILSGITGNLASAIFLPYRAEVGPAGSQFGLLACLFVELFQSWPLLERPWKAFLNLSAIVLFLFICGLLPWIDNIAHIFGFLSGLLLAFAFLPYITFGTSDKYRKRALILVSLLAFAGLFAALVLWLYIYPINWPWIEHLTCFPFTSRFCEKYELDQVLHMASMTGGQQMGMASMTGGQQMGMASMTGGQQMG
In short: (§1)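 Read-out is PE fluorescence by flow cytometry after two-step staining: antibody at 3 μg/ml for 1 hour on ice, then PE-labelled goat anti-mouse IgG F(ab′)2 (1:100) for 1 hour on ice.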

hiR2-FL-K525A-T7 = target: T2, hiR2-FL-K525A-T7 (human, UniProt Q6PJF5 1-856); assay: as above
T2 sequence: T1 sequence with K525A, A575P
In short: as §1

Binder	loss of binding vs wild type (hiR2-FL-P575A-T7) [%]	loss of binding vs wild type (hiR2-FL-K525A-T7) [%]
B1	≥ 30	
B2		≥ 30
